Experimental data published in patent US20250188166A1.

How the values were obtained:
[1] = molecular target: IL-18 polypeptide SEQ ID NO: 30 (E6K, V11I, C38A, K53A, T63A, C76A, C127A) (human) (UniProt Q14116); assay: cell-based or functional assay
[2] = molecular target: native IL-18 wild-type (SEQ ID NO: 1) (human) (UniProt Q14116); assay: cell-based or functional assay

IC50 of IL-18BPa on IFNγ secretion, PD-1^negative Parental NK-92 [1]: 0.11 µM
IC50 of IL-18BPa on IFNγ secretion, PD-1^positive NK-92 [1]: 0.0803 µM
IC50 of IL-18BPa on IFNγ secretion, PD-1^negative Parental NK-92 [2]: 0.00297 µM
IC50 of IL-18BPa on IFNγ secretion, PD-1^positive NK-92 [2]: 0.00267 µM
Substance: His-tag human IL-18 binding protein isoform a (from UniProt O95998 31-194)
